In patent US20150037339A1 (Regeneron, published 2015):

Legend:
[1] = target: T1, Activin A (homodimer of two inhibin βA subunits; R&D Systems, #338-AC) (human, UniProt P08476 311-426); experiment: SPR blocking: 5 nM Activin A + 0.94 nM binder over hActRIIA-hFc surface
T1 construct: Bought protein; also called inhibin-βA dimer
T1 sequence: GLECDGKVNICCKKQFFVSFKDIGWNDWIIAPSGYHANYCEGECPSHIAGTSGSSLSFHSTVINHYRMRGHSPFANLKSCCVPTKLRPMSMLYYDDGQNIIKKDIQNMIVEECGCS
Summary of the method: (§1)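 RU at 150 s post-injection start, minus negative-control reference surface RU = specific binding.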

[2] = target: T1, Activin A (homodimer of two inhibin βA …); experiment: SPR blocking: 5 nM Activin A + 30 nM binder over Follistatin-288 surface
Summary of the method: as §1

[3] = target: T1, Activin A (homodimer of two inhibin βA …); experiment: SPR blocking: 5 nM Activin A + 7.5 nM binder over Follistatin-288 surface
Summary of the method: as §1

[4] = target: T1, Activin A (homodimer of two inhibin βA …); experiment: SPR blocking: 5 nM Activin A + 0.94 nM binder over hActRIIB-hFc (Control 4) surface
[5] = target: T1, Activin A (homodimer of two inhibin βA …); experiment: SPR blocking: 5 nM Activin A + 7.50 nM binder over hActRIIB-hFc (Control 4) surface
[6] = target: T1, Activin A (homodimer of two inhibin βA …); experiment: SPR blocking: 5 nM Activin A + 1.88 nM binder over hActRIIB-hFc (Control 4) surface
Summary of the method: as §1

[7] = target: T1, Activin A (homodimer of two inhibin βA …); experiment: SPR blocking: 5 nM Activin A + 60 nM binder over hActRIIA-hFc surface
Summary of the method: as §1

[8] = target: T1, Activin A (homodimer of two inhibin βA …); experiment: SPR blocking: 5 nM Activin A + 1.88 nM binder over hActRIIA-hFc surface
Summary of the method: as §1

[9] = target: T1, Activin A (homodimer of two inhibin βA …); experiment: SPR blocking: 5 nM Activin A + 60 nM binder over Follistatin-288 surface
Summary of the method: as §1

[10] = target: T1, Activin A (homodimer of two inhibin βA …); experiment: SPR blocking: 5 nM Activin A + 0.00 nM binder over hActRIIB-hFc (Control 4) surface
Summary of the method: as §1

[11] = target: T1, Activin A (homodimer of two inhibin βA …); experiment: SPR blocking: 5 nM Activin A + 0 nM binder over Follistatin-288 surface
Summary of the method: as §1

[12] = target: T1, Activin A (homodimer of two inhibin βA …); experiment: SPR blocking: 5 nM Activin A + 15 nM binder over hActRIIA-hFc surface
Summary of the method: as §1

[13] = target: T1, Activin A (homodimer of two inhibin βA …); experiment: SPR blocking: 5 nM Activin A + 0.94 nM binder over Follistatin-288 surface
Summary of the method: as §1

[14] = target: T1, Activin A (homodimer of two inhibin βA …); experiment: SPR blocking: 5 nM Activin A + 7.50 nM binder over hActRIIA-hFc surface
Summary of the method: as §1

[15] = target: T1, Activin A (homodimer of two inhibin βA …); experiment: SPR blocking: 5 nM Activin A + 15 nM binder over Follistatin-288 surface
Summary of the method: as §1

[16] = target: T1, Activin A (homodimer of two inhibin βA …); experiment: SPR blocking: 5 nM Activin A + 1.88 nM binder over Follistatin-288 surface
Summary of the method: as §1

[17] = target: T1, Activin A (homodimer of two inhibin βA …); experiment: SPR blocking: 5 nM Activin A + 0.00 nM binder over hActRIIA-hFc surface
Summary of the method: as §1

BMP10 = target: T2, BMP10 (human, UniProt O95393 317-424); experiment: cell-based or functional assay
T2 sequence (looked up): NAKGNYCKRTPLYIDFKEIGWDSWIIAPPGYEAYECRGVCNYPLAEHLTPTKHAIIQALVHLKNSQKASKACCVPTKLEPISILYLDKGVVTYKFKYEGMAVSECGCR

BMP9 = target: T3, BMP9 (human, UniProt Q9UK05 320-429); experiment: cell-based or functional assay
T3 sequence (looked up): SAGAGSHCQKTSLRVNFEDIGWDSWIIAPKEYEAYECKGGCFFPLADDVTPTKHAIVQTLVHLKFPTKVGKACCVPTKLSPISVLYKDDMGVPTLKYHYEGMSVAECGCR

[18] = target: T1, Activin A (homodimer of two inhibin βA …); experiment: SPR blocking: 5 nM Activin A + 3.75 nM binder over hActRIIB-hFc (Control 4) surface
Summary of the method: as §1

[19] = target: T1, Activin A (homodimer of two inhibin βA …); experiment: SPR blocking: 5 nM Activin A + 30 nM binder over hActRIIA-hFc surface
Summary of the method: as §1

[20] = target: T1, Activin A (homodimer of two inhibin βA …); experiment: SPR blocking: 5 nM Activin A + 3.75 nM binder over Follistatin-288 surface
Summary of the method: as §1

[21] = target: T1, Activin A (homodimer of two inhibin βA …); experiment: SPR blocking: 5 nM Activin A + 15 nM binder over hActRIIB-hFc (Control 4) surface
[22] = target: T1, Activin A (homodimer of two inhibin βA …); experiment: SPR blocking: 5 nM Activin A + 60 nM binder over hActRIIB-hFc (Control 4) surface
Summary of the method: as §1

[23] = target: T1, Activin A (homodimer of two inhibin βA …); experiment: SPR blocking: 5 nM Activin A + 3.75 nM binder over hActRIIA-hFc surface
Summary of the method: as §1

[24] = target: T1, Activin A (homodimer of two inhibin βA …); experiment: SPR blocking: 5 nM Activin A + 30 nM binder over hActRIIB-hFc (Control 4) surface
Summary of the method: as §1

B1: H4H10429P (antibody, human IgG4, V domains shown)
VH: QVQLVESGGGVVQPGRSLRLSCVASGFTVSSYGIHWVRQAPGKGLEWVSVIWYDGRNKDYADSVKGRFTISRDNSKNTVYLEMKGLRAEDTALYYCARDKTGDFDSWGQGTLVTVSS
VL: DIQMTQSPSSLSASVGDRVTITCRASQNINSFLSWYQQKPGKAPKFLIYDASSIQSGAPSRFSGSGSGTDFTLTISSLQPEDFATYYCQQSYSSPFTFGQGTKLEIK
notes: H4H prefix means human IgG4 Fc
With B1 the “% bound RU w/no inhibitor” value [1] was 87%, the “% bound RU w/no inhibitor” value [2] was 2% and the “% bound RU w/no inhibitor” value [3] was 1%. For the same binder, the “% bound RU w/no inhibitor” value [4] was 87%, the “% bound RU w/no inhibitor” value [5] was 2% and the “% bound RU w/no inhibitor” value [6] was 67%. The “% bound RU w/no inhibitor” value [7] was 1%, the “% bound RU w/no inhibitor” value [8] was 66% and the “% bound RU w/no inhibitor” value [9] was 3%. For the same binder, the “% bound RU w/no inhibitor” value [10] was 100%, the “% bound RU w/no inhibitor” value [11] was 100% and the “% bound RU w/no inhibitor” value [12] was 1%. The “% bound RU w/no inhibitor” value [13] was 97%, the “% bound RU w/no inhibitor” value [14] was 1% and the “% bound RU w/no inhibitor” value [15] was 1%. The “% bound RU w/no inhibitor” value [16] was 80%, the “% bound RU w/no inhibitor” value [17] was 100% and the “IC50 [M]; inhibition of 4 nM BMP10 in W-20-17/BRE-luc cells” value (BMP10) was 3.5e-09 M. The “IC50 [M]; inhibition of 800 pM BMP9 in W-20-17/BRE-luc cells” value (BMP9) was 8.1e-09 M, the “% bound RU w/no inhibitor” value [18] was 19% and the “% bound RU w/no inhibitor” value [19] was 1%. The “% bound RU w/no inhibitor” value [20] was 20%, the “% bound RU w/no inhibitor” value [21] was 2% and the “% bound RU w/no inhibitor” value [22] was 3%. The “% bound RU w/no inhibitor” value [23] was 19% and the “% bound RU w/no inhibitor” value [24] was 2%.

B2: H4H10436P2 (antibody, human IgG4, V domains shown)
VH: QVQLVESGGGVVQPGRSLRLTCVASGFTVSSYGMHWVRQAPGKGLEWVAVMFYDESKKYYADSVKGRFTISRDNSKNTLYLQMNSLRVEDTAVYYCARDEQLDFEYWGQGTLVTVSS
VL: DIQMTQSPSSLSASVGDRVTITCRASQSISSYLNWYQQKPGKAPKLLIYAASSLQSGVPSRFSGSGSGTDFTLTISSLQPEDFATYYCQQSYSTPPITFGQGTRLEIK
notes: as for B1
For B2, the “% bound RU w/no inhibitor” value [1] was 75%, the “% bound RU w/no inhibitor” value [2] was 2% and the “% bound RU w/no inhibitor” value [3] was 1%. For the same binder, the “% bound RU w/no inhibitor” value [4] was 80%, the “% bound RU w/no inhibitor” value [5] was 3% and the “% bound RU w/no inhibitor” value [6] was 60%. The “% bound RU w/no inhibitor” value [7] was 2%, the “% bound RU w/no inhibitor” value [8] was 55% and the “% bound RU w/no inhibitor” value [9] was 2%. The “% bound RU w/no inhibitor” value [10] was 100%, the “% bound RU w/no inhibitor” value [11] was 100% and the “% bound RU w/no inhibitor” value [12] was 2%. The “% bound RU w/no inhibitor” value [13] was 78%, the “% bound RU w/no inhibitor” value [14] was 2% and the “% bound RU w/no inhibitor” value [15] was 1%. The “% bound RU w/no inhibitor” value [16] was 61%, the “% bound RU w/no inhibitor” value [17] was 100% and the “IC50 [M]; inhibition of 4 nM BMP10 in W-20-17/BRE-luc cells” value (BMP10) was > 1e-07 M. For the same binder, the “% bound RU w/no inhibitor” value [18] was 19%, the “% bound RU w/no inhibitor” value [19] was 2% and the “% bound RU w/no inhibitor” value [20] was 16%. The “% bound RU w/no inhibitor” value [21] was 2%, the “% bound RU w/no inhibitor” value [22] was 4% and the “% bound RU w/no inhibitor” value [23] was 16%. The “% bound RU w/no inhibitor” value [24] was 3%.
